Data reported in article PMC5577056 (Scientific Reports, 2017).
Substitutions are numbered along the chain they refer to. Names may count otherwise. One block for each binder: values may come before it.

Key:
Conditions in all cases: both partners purified
[1] = target: T1, lysozyme (Gallus gallus (hen egg white), by PDB …, UniProt P00698); test: ITC; antibody (about 30 uM) titrated into lysozyme (about 2 uM), 25 injections of 10 ul; PBS (20 mM, pH 7.4), 143 mM NaCl; 293 K (20 °C)
T1 construct: lysozyme, the antigen of the anti-lysozyme antibody HyHEL-10; also called antigen
T1 sequence (P00698 19-147): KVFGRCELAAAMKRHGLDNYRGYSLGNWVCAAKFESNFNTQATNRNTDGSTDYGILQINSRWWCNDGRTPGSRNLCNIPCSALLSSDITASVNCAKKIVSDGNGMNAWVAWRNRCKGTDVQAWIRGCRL

[2] = target: T1, lysozyme; test: ITC; antibody (about 30 uM) titrated into lysozyme (about 2 uM), 25 injections of 10 ul; PBS (20 mM, pH 7.4), 143 mM NaCl; 298 K (25 °C)
[3] = target: T1, lysozyme; test: ITC; antibody (about 30 uM) titrated into lysozyme (about 2 uM), 25 injections of 10 ul; PBS (20 mM, pH 7.4), 143 mM NaCl; 303 K (30 °C)
[4] = target: T1, lysozyme; test: ITC; antibody (about 30 uM) titrated into lysozyme (about 2 uM), 25 injections of 10 ul; PBS (20 mM, pH 7.4), 143 mM NaCl; 293 K (20 °C); remark: listed apart in the source

- dH [1]: -23.78 ± 0.0598 kcal/mol
- dH [2]: -27.1 ± 0.086 kcal/mol
- dH [3]: -31.1 ± 0.347 kcal/mol
B1: HyHEL-10 Fv fragment, H:R71A mutant (antibody, V domains shown)
VH: DVQLQESGPSLVKPSQTLSLTCSVTGDSITSDYWSWIRKFPGNRLEYMGYVSYSGSTYYNPSLKSRISITADTSKNQYYLDLNSVTTEDTATYYCANWDGDYWGQGTLVTVSA
VL: DIVLTQSPATLSVTPGNSVSLSCRASQSIGNNLHWYQQKSHESPRLLIKYASQSISGIPSRFSGSGSGTDFTLSINSVETEDFGMYFCQQSNSWPYTFGGGTKLEIK
notes: as the VH of m1, with R71A; as the VL of m1; Fv fragment; the text throughout has H:R71A

- dH [4]: -16.46 ± 0.0502 kcal/mol
- dH [2]: -17.57 ± 0.0359 kcal/mol
- dH [3]: -18.97 ± 0.055 kcal/mol
B2: HyHEL-10 Fv fragment, L:R45A mutant (antibody, V domains shown)
VH: B1 VH with A71R
VL: B1 VL with R45A
notes: as the VH of m1; as the VL of m1, with R45A; Fv fragment; the text throughout has L:R45A
